Experimental data from patent publication US20090286727A1 (Ablynx, published 2009).
One block for each binder: values may come before it.

Target: T1, human IL6 (human, UniProt P05231 30-212, biotinylated in the ELISA (bio-IL6); site not given)
T1 construct: In the ELISA it was biotinylated and captured on a neutravidin-coated plate; In Biacore it was on a CM5 sensor chip; also called bio-IL6; biotinylated human IL6
Experiment: SPR, Biacore 3000, human IL6 on CM5 chip, Nanobody 3.75 nM to 2 uM
Protocol: Binding of VH4 Nanobodies to different antigens was evaluated by surface plasmon resonance on a Biacore 3000 instrument. […]

Kd: 19 nM | koff: 0.00036 s⁻¹ | kon: 19000 M⁻¹ s⁻¹
B1: VH4 16.1 (VHH)
VHH: QVQLQESGPGLVKPSQTLSLTCTVSGGSITTYRYYWSWIRQPPGKGLEWMGAIAYSGSTYYSPSLKSRTSISRDTTKNQFTLQLSSVTPEDTAVYYCARGRLGSWYYELNEYDYWGQGTQVTVSS
notes: The two are tied only by the clone number; Llama VH4-class Nanobody, purified by IMAC as a His6-tagged protein; also called anti-IL6 VH4 Nanobody 16.1; VH4 cl16; not shown: His6 tag from vector pAX51

Kd: 46 nM | koff: 0.0018 s⁻¹ | kon: 40000 M⁻¹ s⁻¹
B2: VH4 20.1 (VHH)
VHH: QVQLQESGPGLVKPSQTLSLTCTVSGGSITTYNYAWSWIRQPPGKGLEWMGVIAYDGSTYYSPSLKSRTSISRDTSKNQFSLQLSSVTPEDTAVYYCARGTVGSWYDEFPPRYDYWGQGTQVTVSS
notes: The two are tied only by the clone number; also called anti-IL6 VH4 Nanobody 20.1; VH4 Nanobody 20.1; not shown: His6 tag from vector pAX51
